Assay results: paper PMC2927601, “Molecular basis for defect in Alix-binding by alternatively spliced isoform of ALG-2 (ALG-2^ΔGF122) and structural roles of F122 in target recognition” (BMC Structural Biology, 2010)
Changes are numbered by the printed parent chain. Numbers in names are those of the source.

B1: ALG-2^F122A, full-length recombinant (natural protein, human, UniProt O75340 1-191, looked up)
chain: MAAYSYRPGPGAGPGPAAGAALPDQSFLWNVFQRVDKDRSGVISDTELQQALSNGTWTPFNPVTVRSIISMFDRENKAGVNFSEFTGVWKYITDWQNVFRTYDRDNSGMIDKNELKQALSGAGYRLSDQFHDILIRKFDRQGRGQIAFDDFIQGCIVLQRLTDIFRRYDTDQDGWIQVSYEQYLSMVFSIV
notes: ALG-2, human, 191 residues, Phe122 substituted with Ala; PDB 2ZN8 is the wild-type full-length parent
B2: ALG-2^F122S, full-length recombinant (natural protein, human, UniProt O75340 1-191, looked up)
chain: B1 chain with A122S
notes: ALG-2, human, 191 residues, Phe122 substituted with Ser; PDB 2ZN8 is the wild-type full-length parent
B3: synthetic peptide of the ALG-2-binding site in Alix with N-terminal linker (peptide)
peptide: KGGSGGSQGPPYPTYPGYPGYSQ
notes: linker, printed in lower case; also called Alix ABS peptide; ABS oligopeptide; source: synthetic peptide (Biosynthesis Inc., USA)
B4: ALG-2^F122W, full-length recombinant (natural protein, human, UniProt O75340 1-191, looked up)
chain: B1 chain with A122W
notes: ALG-2, human, 191 residues, Phe122 substituted with Trp; PDB 2ZN8 is the wild-type full-length parent
B5: ALG-2^F122G, full-length recombinant (natural protein, human, UniProt O75340 1-191, looked up)
chain: B1 chain with A122G
notes: ALG-2, human, 191 residues, Phe122 substituted with Gly; PDB 2ZN8 is the wild-type full-length parent

Tests used:
[1] = molecular target: B3; assay: SPR; Biacore2000, 25°C; Alix ABS peptide immobilized on CM5 chip; ALG-2 proteins 100 nM in HBS-P (10 mM HEPES-NaOH pH 7.4, 150 mM NaCl, 0.005% P20) with 100 μM CaCl2, 20 μl/min, injected 180 s; resonance signal at 10 s before dissociation phase relative to WT; conditions: both partners purified
[2] = molecular target: T1, ALG-2 (apoptosis-linked gene 2), wild type, full-length recombinant (human, UniProt O75340 1-191); assay: as above; conditions: both partners purified
T1 construct: ALG-2, human, 22-kDa protein of 191 amino acid residues; longer (major) isoform regarded as wild type; also called WT; wild-type ALG-2

Row | relative binding capacity (% of WT resonance signal) [1] | binding result [2] | Binder
1 | 240% | – | B1
2 | 89% | – | B2
3 | – | binds | B3
4 | 36% | – | B4
5 | 140% | – | B5
